Assay results taken from patent publication US20170342119A1.

Target: IL-15 βγ receptors on 32Dβ cells (UniProt P14784)
Test: cell-based or functional assay

UniProt P14784, sequence (P14784 27-551, chain 1 of 2): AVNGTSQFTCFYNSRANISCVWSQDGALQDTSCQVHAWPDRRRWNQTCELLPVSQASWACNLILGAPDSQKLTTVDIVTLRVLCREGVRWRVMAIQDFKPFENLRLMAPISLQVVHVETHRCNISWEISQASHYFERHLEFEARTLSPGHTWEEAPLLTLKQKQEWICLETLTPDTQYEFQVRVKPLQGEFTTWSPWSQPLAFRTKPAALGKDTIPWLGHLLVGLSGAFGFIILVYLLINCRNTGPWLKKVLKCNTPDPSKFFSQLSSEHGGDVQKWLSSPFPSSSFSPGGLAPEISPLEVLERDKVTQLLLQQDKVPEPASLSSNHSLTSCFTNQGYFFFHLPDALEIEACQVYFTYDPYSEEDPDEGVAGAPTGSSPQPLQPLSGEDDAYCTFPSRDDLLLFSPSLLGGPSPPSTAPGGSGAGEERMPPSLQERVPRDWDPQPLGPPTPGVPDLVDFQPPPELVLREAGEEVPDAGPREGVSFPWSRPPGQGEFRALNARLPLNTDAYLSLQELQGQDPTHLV
UniProt P14784, sequence (P34902 23-369, chain 2 of 2, further chain): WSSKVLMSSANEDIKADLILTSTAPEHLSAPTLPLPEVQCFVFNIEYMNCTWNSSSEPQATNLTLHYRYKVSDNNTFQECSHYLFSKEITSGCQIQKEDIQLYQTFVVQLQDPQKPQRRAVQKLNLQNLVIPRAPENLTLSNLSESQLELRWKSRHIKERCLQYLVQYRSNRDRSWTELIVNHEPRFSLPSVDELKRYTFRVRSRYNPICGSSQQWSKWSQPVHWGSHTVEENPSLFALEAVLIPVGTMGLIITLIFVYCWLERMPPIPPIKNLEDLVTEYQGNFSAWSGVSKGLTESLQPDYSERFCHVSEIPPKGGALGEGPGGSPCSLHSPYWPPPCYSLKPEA

Substance “IL-15 (from UniProt P40933 49-162) (ligand)” has a 32Dβ cell proliferation (WST-1), EC50 of 0.034 nM.
